Measured values reported in paper PMC5693252.
Like-named read-outs stand apart in the source and are kept apart here.

Assays:
Experiment in all cases: native MS
AKAP79(297-427) = AKAP79(297-427) (UniProt P24588)
[1] = target: protein kinase A regulatory type II (RII) subunit (UniProt P12367)
[2] = target: protein kinase A regulatory type II (RII) subunit (UniProt P12367); remark: listed apart in the source

Sequence of UniProt P24588 (P24588 297-427): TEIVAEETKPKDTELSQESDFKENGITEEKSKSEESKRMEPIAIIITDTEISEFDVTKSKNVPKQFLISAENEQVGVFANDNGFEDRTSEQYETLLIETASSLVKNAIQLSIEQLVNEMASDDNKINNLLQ

stoichiometry N (RII chains per AKAP79(297-427)) (AKAP79(297-427)): 2
stoichiometry N (RII chains in the oligomer) [1]: 2
stoichiometry N (RII chains in the oligomer) [2]: 2
Substance: protein kinase A regulatory type II (RII) subunit (from UniProt P12367 1-401) (natural protein)
